Results on nine molecules are retold here after patent publication EP4471049A1 (Zealand Pharma A/S, priority 2023, dated 2024).

Like-named read-outs stand apart in the source and are kept apart here. *1 amine or outer side, *2 acyl side, *3 side chain or, on linkers, in order; H or OH if unused. Bridges are numbered along the chain shown (N, C = ends). [ ]: non-standard residue; d: D form. The star is where a group is joined. 4‑Aminomethyl‑phenylacetyl = 4-aminomethyl-phenylacetyl unit, its amine closes the lactam, O=C(Cc1ccc(CN[*:1])cc1)[*:2]; αMeAla(3-pyridyl) = C[C@](N)(Cc1cccnc1)C(=O)O; NH(4-(3-pyridyl)butyl) = c1cncc(CCCCN*)c1; NH(2-(3-pyridyl)ethyl) = c1cncc(CCN*)c1; 2Nal = N[C@@H](Cc1ccc2ccccc2c1)C(=O)O; AEF = NCCOc1ccc(C[C@H](N)C(=O)O)cc1; NMe3Pal = CN[C@@H](Cc1cccnc1)C(=O)O; 3Pal = N[C@@H](Cc1cccnc1)C(=O)O; d3Pal = N[C@H](Cc1cccnc1)C(=O)O; αMeL = CC(C)C[C@](C)(N)C(=O)O; Dab = NCC[C@H](N)C(=O)O

Test [1] has as its target T1, human IL-23R endogenously expressed on DB cells (human, UniProt Q5VWK5 24-629).
T1 sequence (looked up): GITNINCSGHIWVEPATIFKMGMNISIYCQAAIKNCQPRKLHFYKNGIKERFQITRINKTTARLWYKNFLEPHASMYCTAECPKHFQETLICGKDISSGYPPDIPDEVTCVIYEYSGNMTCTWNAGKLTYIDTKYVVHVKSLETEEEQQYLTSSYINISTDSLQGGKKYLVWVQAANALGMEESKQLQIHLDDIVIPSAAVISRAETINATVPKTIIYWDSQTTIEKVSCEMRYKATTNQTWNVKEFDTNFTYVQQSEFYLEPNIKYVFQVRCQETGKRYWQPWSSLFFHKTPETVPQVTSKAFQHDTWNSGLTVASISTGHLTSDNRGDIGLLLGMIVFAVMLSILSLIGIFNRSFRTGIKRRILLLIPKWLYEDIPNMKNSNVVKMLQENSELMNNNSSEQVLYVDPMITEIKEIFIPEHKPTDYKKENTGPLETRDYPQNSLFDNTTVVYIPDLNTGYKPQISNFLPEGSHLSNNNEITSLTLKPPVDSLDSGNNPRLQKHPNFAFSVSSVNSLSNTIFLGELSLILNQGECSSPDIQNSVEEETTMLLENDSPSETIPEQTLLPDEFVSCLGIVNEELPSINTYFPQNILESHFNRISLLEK
Nature of the test: cell-based or functional assay.

Test [2] deals with T2, Nluc-IL23R fusion protein (human, UniProt Q5VWK5 22-629).
T2 construct: range 22-629; expressed with a secretion signal in HEK293 cells; used as crude membrane preparation; also called hIL-23R; human IL-23R; not shown: Nanoluc protein from the expression plasmid N1371 (Promega), N-terminal of IL-23R
T2 sequence (looked up): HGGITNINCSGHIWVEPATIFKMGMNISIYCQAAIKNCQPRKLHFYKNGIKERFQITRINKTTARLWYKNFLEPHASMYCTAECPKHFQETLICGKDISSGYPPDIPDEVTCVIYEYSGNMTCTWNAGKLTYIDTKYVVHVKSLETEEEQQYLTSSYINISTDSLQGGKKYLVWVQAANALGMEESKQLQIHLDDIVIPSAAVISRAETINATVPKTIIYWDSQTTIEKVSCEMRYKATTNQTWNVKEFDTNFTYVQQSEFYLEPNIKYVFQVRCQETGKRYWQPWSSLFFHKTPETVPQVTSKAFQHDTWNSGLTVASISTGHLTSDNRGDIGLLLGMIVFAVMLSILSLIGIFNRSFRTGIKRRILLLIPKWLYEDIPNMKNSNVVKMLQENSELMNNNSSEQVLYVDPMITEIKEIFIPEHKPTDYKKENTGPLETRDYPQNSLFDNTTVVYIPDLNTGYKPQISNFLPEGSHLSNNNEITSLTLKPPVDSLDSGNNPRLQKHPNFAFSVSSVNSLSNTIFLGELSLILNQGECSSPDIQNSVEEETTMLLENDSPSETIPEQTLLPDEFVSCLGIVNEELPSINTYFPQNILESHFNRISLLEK
Nature of the test: BRET competition vs TAMRA-labelled peptide, Nluc-IL23R membranes.

In test [3] the target is T1, human IL-23R endogenously expressed on …. Description: cell-based or functional assay. This is another data set of the same source.
Test [4] has the same target. Nature of the test: cell-based or functional assay. This is another data set of the same source.
Test [5] shares this target. Nature of the test: cell-based or functional assay. This is another data set of the same source.
Test [6] shares this target. Nature of the test: cell-based or functional assay. The source holds these as a separate data set.
The target in test [7] is T2, Nluc-IL23R fusion protein. Nature of the test: BRET competition vs TAMRA-labelled peptide, Nluc-IL23R membranes. This is another data set of the same source. (Bioluminescence resonance energy transfer reports proximity on the nanometre scale.)

B1: Compound 3 (peptide)
peptide: [4‑Aminomethyl‑phenylacetyl]SEWQ[Dab][AEF][2Nal][αMeL]E[Dab][αMeAla(3-pyridyl)]-NH2
modifications: lactam N-10, 3-6
SMILES: CC(C)C[C@]1(C)NC(=O)[C@H](Cc2ccc3ccccc3c2)NC(=O)[C@H](Cc2ccc(OCCN)cc2)NC(=O)[C@@H]2CCNC(=O)CC[C@H](NC(=O)[C@H](CO)NC(=O)Cc3ccc(cc3)CNC(=O)CC[C@@H](C(=O)N[C@@H](CCN)C(=O)N[C@@](C)(Cc3cccnc3)C(N)=O)NC1=O)C(=O)N[C@@H](Cc1c[nH]c3ccccc13)C(=O)N[C@@H](CCC(N)=O)C(=O)N2
Regarding B1, in test [1], the “hIL-23 (pSTAT3) antagonist % inhibition” value came out at 98% and the “hIL-23 (pSTAT3) antagonist IC50” value worked out at 1.7 nM. The molecule further showed a % displacement (hIL-23R binding) in test [2] of 99%. The “IC50 (pSTAT3)” value in test [3] turned out to be 1.7 nM.

B2: Compound 4 (peptide)
peptide: [4‑Aminomethyl‑phenylacetyl]SEWQ[Dab][AEF][2Nal][αMeL]E[Dab][NMe3Pal]-NH2
modifications: lactam N-10, 3-6
Turning to B2, in test [1], the “hIL-23 (pSTAT3) antagonist % inhibition” value came to 100% and the “hIL-23 (pSTAT3) antagonist IC50” value stood at 6.5 nM. In test [2], this molecule came in with a % displacement (hIL-23R binding) of 111% and an IC50 of 0.17 nM. In addition, in test [3], the “IC50 (pSTAT3)” value turned out to be 6.5 nM.

B3: Compound 8 (peptide)
peptide: [4‑Aminomethyl‑phenylacetyl]SEWQ[Dab][AEF][2Nal][αMeL]E[Dab][3Pal]-NHMe
modifications: lactam N-10, 3-6
For the molecule B3, in test [1], the “hIL-23 (pSTAT3) antagonist % inhibition” value was determined as 101% and the “hIL-23 (pSTAT3) antagonist IC50” value is 53 pM. Moreover, the % displacement (hIL-23R binding) in test [2] came to 103%. Moreover, the “IC50 (pSTAT3)” value in test [3] came to 53 pM.

B4: Compound 5 (peptide)
peptide: [4‑Aminomethyl‑phenylacetyl]SEWQ[Dab][AEF][2Nal][αMeL]E[Dab][d3Pal]-NH2
modifications: lactam N-10, 3-6
As for B4, in test [1], the “hIL-23 (pSTAT3) antagonist % inhibition” value was 95% and the “hIL-23 (pSTAT3) antagonist IC50” value turned out to be 2.1 nM. Moreover, in test [4], the “IC50 (pSTAT3)” value was 2.1 nM. In test [2], this molecule yielded a % displacement (hIL-23R binding) of 99%.

B5: Ref 122 (peptide)
peptide: [4‑Aminomethyl‑phenylacetyl]SEWQ[Dab][AEF][2Nal][αMeL]E[Dab][3Pal]-NH2
modifications: lactam N-10, 3-6
SMILES: CC(C)C[C@]1(C)NC(=O)[C@H](Cc2ccc3ccccc3c2)NC(=O)[C@H](Cc2ccc(OCCN)cc2)NC(=O)[C@@H]2CCNC(=O)CC[C@H](NC(=O)[C@H](CO)NC(=O)Cc3ccc(cc3)CNC(=O)CC[C@@H](C(=O)N[C@@H](CCN)C(=O)N[C@@H](Cc3cccnc3)C(N)=O)NC1=O)C(=O)N[C@@H](Cc1c[nH]c3ccccc13)C(=O)N[C@@H](CCC(N)=O)C(=O)N2
Consider B5, for which the “IC50 (pSTAT3)” value in test [5], in test [6], in test [4] and in test [3] was 28 pM throughout. Also, the “hIL-23 (pSTAT3) antagonist % inhibition” value in test [1] is 99%. Moreover, the “hIL-23 (pSTAT3) antagonist IC50” value in test [1] amounted to 28 pM. Further, the % displacement (hIL-23R binding) in test [7] was determined as 97%.

B6: Compound 6 (peptide)
peptide: [4‑Aminomethyl‑phenylacetyl]SEWQ[Dab][AEF][2Nal][αMeL]E[Dab]-{NH(4-(3-pyridyl)butyl)}
modifications: lactam N-10, 3-6
In the case of B6, in test [1], the “hIL-23 (pSTAT3) antagonist % inhibition” value was 99% and the “hIL-23 (pSTAT3) antagonist IC50” value was 3.2 nM. In addition, in test [6], the “IC50 (pSTAT3)” value turned out to be 3.2 nM. In test [2], the % displacement (hIL-23R binding) is 103% and the concentration for half-maximal inhibition (IC50) amounted to 0.037 nM.

B7: Compound 7 (peptide)
peptide: [4‑Aminomethyl‑phenylacetyl]SEWQ[Dab][AEF][2Nal][αMeL]E[Dab]-{NH(2-(3-pyridyl)ethyl)}
modifications: lactam N-10, 3-6
SMILES: CC(C)C[C@]1(C)NC(=O)[C@H](Cc2ccc3ccccc3c2)NC(=O)[C@H](Cc2ccc(OCCN)cc2)NC(=O)[C@@H]2CCNC(=O)CC[C@H](NC(=O)[C@H](CO)NC(=O)Cc3ccc(cc3)CNC(=O)CC[C@@H](C(=O)N[C@@H](CCN)C(=O)NCCc3cccnc3)NC1=O)C(=O)N[C@@H](Cc1c[nH]c3ccccc13)C(=O)N[C@@H](CCC(N)=O)C(=O)N2
For B7, in test [1], the “hIL-23 (pSTAT3) antagonist % inhibition” value was 98% and the “hIL-23 (pSTAT3) antagonist IC50” value is 0.13 nM. Further, the “IC50 (pSTAT3)” value in test [6] was 0.13 nM. In addition, the % displacement (hIL-23R binding) in test [2] came to 102%.

B8: Compound 10 (peptide)
peptide: [4‑Aminomethyl‑phenylacetyl]SEWQ[Dab][AEF][2Nal][αMeL]E[Dab][3Pal][dH]-NH2
modifications: lactam N-10, 3-6
SMILES: CC(C)C[C@]1(C)NC(=O)[C@H](Cc2ccc3ccccc3c2)NC(=O)[C@H](Cc2ccc(OCCN)cc2)NC(=O)[C@@H]2CCNC(=O)CC[C@H](NC(=O)[C@H](CO)NC(=O)Cc3ccc(cc3)CNC(=O)CC[C@@H](C(=O)N[C@@H](CCN)C(=O)N[C@@H](Cc3cccnc3)C(=O)N[C@H](Cc3c[nH]cn3)C(N)=O)NC1=O)C(=O)N[C@@H](Cc1c[nH]c3ccccc13)C(=O)N[C@@H](CCC(N)=O)C(=O)N2
In the case of B8, the “IC50 (pSTAT3)” value in test [5] stood at 38 pM. Moreover, in test [1], the “hIL-23 (pSTAT3) antagonist % inhibition” value turned out to be 99% and the “hIL-23 (pSTAT3) antagonist IC50” value turned out to be 38 pM. Further, the % displacement (hIL-23R binding) in test [7] amounted to 91%.

B9: Compound 13 (peptide)
peptide: [4‑Aminomethyl‑phenylacetyl]SEWQ[Dab][AEF][2Nal][αMeL]E[Dab][dH]-NH2
modifications: lactam N-10, 3-6
SMILES: CC(C)C[C@]1(C)NC(=O)[C@H](Cc2ccc3ccccc3c2)NC(=O)[C@H](Cc2ccc(OCCN)cc2)NC(=O)[C@@H]2CCNC(=O)CC[C@H](NC(=O)[C@H](CO)NC(=O)Cc3ccc(cc3)CNC(=O)CC[C@@H](C(=O)N[C@@H](CCN)C(=O)N[C@H](Cc3c[nH]cn3)C(N)=O)NC1=O)C(=O)N[C@@H](Cc1c[nH]c3ccccc13)C(=O)N[C@@H](CCC(N)=O)C(=O)N2
Consider B9, for which, in test [1], the “hIL-23 (pSTAT3) antagonist % inhibition” value was determined as 99% and the “hIL-23 (pSTAT3) antagonist IC50” value came to 6.8 nM. In addition, the “IC50 (pSTAT3)” value in test [4] was found to be 6.8 nM. Besides, the % displacement (hIL-23R binding) in test [2] was 100%.

One may read the IC50 as the concentration that gives 50% inhibition. High values mean lower potency, low ones higher potency.
